Laboratory results published in the Human Domainome abundance scans (Beltran et al. 2025).
± gives the uncertainty stated by the source.

B1: Transcriptional regulator ERG, residues 117 to 197; numbered along this chain, P11308 (parent)
chain: NMTTNERRVIVPADPTLWSTDHVRQWLEWAVKEYGLPDVNILLFQNIDGKELCKMTKDDFQRLTPSYNADILLSHLHYLRE

Variants of: B1
Assay: abundance fitness (aPCA) (normalised: wild type 0, dead -1); higher = more abundant; growth selection in yeast, the domain comes from the species named
Conditions: Homo sapiens

Variant	abundance fitness
L42R	0.056 ± 0.031
D14F	-0.444 ± 0.12
T16I	0.048 ± 0.082
F44N	-0.067 ± 0.082
W29K	0.048 ± 0.058
L52S	-0.932 ± 0.12
Q45R	-0.055 ± 0.034
S19W	-0.683 ± 0.088
Q61D	-0.037 ± 0.12
F60T	-0.902 ± 0.32
D58N	-0.169 ± 0.13
K54C	-0.112 ± 0.095
L76P	-0.923 ± 0.3
R62W	-0.26 ± 0.1
Q61P	-0.617 ± 0.18
M2A	-0.296 ± 0.057
L36E	-0.889 ± 0.12
R62P	-0.399 ± 0.13
M55A	-0.842 ± 0.18
L73C	0.075 ± 0.092
L79V	0.046 ± 0.05

Variant	abundance fitness
A13H	0.045 ± 0.12
M2F	-0.048 ± 0.084
R24N	-0.105 ± 0.13
L72P	-0.649 ± 0.26
D48Y	-1 ± 0.32
D70M	-0.237 ± 0.084
H77F	-0.226 ± 0.16
Y67P	0.036 ± 0.09
F60W	0.017 ± 0.062
D70S	-0.1 ± 0.056
A30Q	-0.018 ± 0.059
L43Y	-0.082 ± 0.072
R7S	-0.047 ± 0.045
A13C	0.009 ± 0.067
Y67M	-0.14 ± 0.1
R7Q	0.016 ± 0.056
Q45D	-0.096 ± 0.064
P15C	-0.323 ± 0.069
F44Q	-0.181 ± 0.068
I10F	-0.06 ± 0.077
V9R	0.113 ± 0.043

Variant	abundance fitness
L79H	-0.076 ± 0.12
K54W	-0.41 ± 0.09
F60R	-0.866 ± 0.14
G35P	-0.302 ± 0.07
D59H	-0.244 ± 0.24
Q45G	-0.042 ± 0.032
S66Q	-0.012 ± 0.075
L76I	0.05 ± 0.32
H77L	-0.087 ± 0.067
V39K	-0.242 ± 0.068
T4C	-0.018 ± 0.059
V31S	-0.015 ± 0.045
H22W	-0.55 ± 0.091
I71M	0.065 ± 0.077
V23N	-0.475 ± 0.24
S19H	-0.18 ± 0.1
N68L	-0.48 ± 0.081
R24I	-0.162 ± 0.1
Y78W	-0.22 ± 0.087
L36N	-0.75 ± 0.16
A13F	-0.074 ± 0.072

Variant	abundance fitness
N40A	-0.201 ± 0.05
D21C	-0.09 ± 0.061
R7W	-0.053 ± 0.045
T3H	-0.127 ± 0.086
R80E	-0.166 ± 0.15
T56N	-0.076 ± 0.11
S66F	-0.039 ± 0.11
L36R	-0.81 ± 0.07
I71Q	0.03 ± 0.055
K57L	-0.084 ± 0.055
D21L	-0.106 ± 0.04
L73N	-0.201 ± 0.16
W26G	-0.965 ± 0.075
S74V	-0.138 ± 0.066
L42W	-0.024 ± 0.038
V31P	-0.649 ± 0.14
P12Y	-0.45 ± 0.12
L52P	-0.886 ± 0.12
T16R	-0.092 ± 0.038
N5W	-0.003 ± 0.049
L17F	-0.295 ± 0.12
